According to the Immune Epitope Database (IEDB):

Columns and labels:
[1] = biological target: HLA-A*01:01; assay: IEDB peptide-MHC binding, purified MHC/competitive/fluorescence; ≥ and ≤ were set here for values at or beyond the usual limits of such assays; settings: source organism: Zaire ebolavirus
[2] = biological target: HLA-A*02:01; assay: as above; settings: source organism: Zaire ebolavirus
[3] = biological target: HLA-A*24:02; assay: as above; settings: source organism: Zaire ebolavirus
[4] = biological target: HLA-B*15:01; assay: as above; settings: source organism: Zaire ebolavirus
[5] = biological target: HLA-A*32:07; assay: IEDB peptide-MHC binding, purified MHC/competitive/fluorescence; filed as Kd, often an IC50 or EC50 that approximates it; ≥ and ≤ were set here for values at or beyond the usual limits of such assays
[6] = biological target: HLA-A*68:02; assay: as above; settings: source organism: Francisella tularensis subsp. tularensis FSC198
[7] = biological target: HLA-B*15:42; assay: as above
[8] = biological target: HLA-B*45:06; assay: as above
[9] = biological target: HLA-B*83:01; assay: as above
[10] = biological target: HLA-C*04:01; assay: as above
[11] = biological target: HLA-A*01:01; assay: IEDB peptide-MHC binding, purified MHC/direct/fluorescence; filed as Kd, often an IC50 or EC50 that approximates it; ≥ and ≤ were set here for values at or beyond the usual limits of such assays
[12] = biological target: HLA-A*02:01; assay: as above
[13] = biological target: HLA-A*26:03; assay: as above
[14] = biological target: HLA-A*68:02; assay: as above; settings: source organism: Buffalopox virus
[15] = biological target: HLA-A*69:01; assay: as above
[16] = biological target: HLA-B*15:01; assay: as above
[17] = biological target: HLA-B*27:05; assay: as above
[18] = biological target: HLA-B*39:01; assay: as above; settings: source organism: Buffalopox virus
[19] = biological target: HLA-B*40:01; assay: as above
[20] = biological target: HLA-B*46:01; assay: as above; settings: source organism: Buffalopox virus
[21] = biological target: HLA-B*48:01; assay: as above; settings: source organism: Buffalopox virus
[22] = biological target: HLA-B*57:01; assay: as above; settings: source organism: Buffalopox virus
[23] = biological target: HLA-B*58:01; assay: as above
[24] = biological target: HLA-A*26:02; assay: IEDB peptide-MHC binding, purified MHC/competitive/fluorescence; filed as Kd, often an IC50 or EC50 that approximates it; ≥ and ≤ were set here for values at or beyond the usual limits of such assays; settings: source organism: Variola virus
[25] = biological target: HLA-B*07:02; assay: as above; settings: source organism: Variola virus
[26] = biological target: HLA-B*15:17; assay: as above; settings: source organism: Variola virus
[27] = biological target: HLA-B*18:01; assay: as above; settings: source organism: Variola virus
[28] = biological target: HLA-B*35:01; assay: as above; settings: source organism: Variola virus
[29] = biological target: HLA-A*11:01; assay: IEDB peptide-MHC binding, purified MHC/direct/fluorescence; filed as Kd, often an IC50 or EC50 that approximates it; ≥ and ≤ were set here for values at or beyond the usual limits of such assays
[30] = biological target: HLA-A*31:01; assay: IEDB peptide-MHC binding, purified MHC/competitive/fluorescence; filed as Kd, often an IC50 or EC50 that approximates it; ≥ and ≤ were set here for values at or beyond the usual limits of such assays; settings: source organism: dengue virus type 1
[31] = biological target: HLA-A*30:01; assay: IEDB peptide-MHC binding, purified MHC/competitive/radioactivity; filed as Kd, often an IC50 or EC50 that approximates it; ≥ and ≤ were set here for values at or beyond the usual limits of such assays; settings: source organism: Dengue virus 1 Brazil/97-11/1997
[32] = biological target: HLA-A*32:01; assay: as above; settings: source organism: Dengue virus 1 Brazil/97-11/1997
[33] = biological target: HLA-B*15:01; assay: IEDB peptide-MHC binding, purified MHC/competitive/fluorescence; filed as Kd, often an IC50 or EC50 that approximates it; ≥ and ≤ were set here for values at or beyond the usual limits of such assays; settings: source organism: Yersinia pestis Nepal516
[34] = biological target: HLA-B*40:01; assay: as above; settings: source organism: Yersinia pestis Nepal516
[35] = biological target: HLA-B*07:02; assay: IEDB peptide-MHC binding, purified MHC/direct/fluorescence; filed as Kd, often an IC50 or EC50 that approximates it; ≥ and ≤ were set here for values at or beyond the usual limits of such assays
[36] = biological target: HLA-B*51:01; assay: as above; settings: source organism: Mycobacterium tuberculosis
[37] = biological target: HLA-A*02:01; assay: IEDB peptide-MHC binding, purified MHC/competitive/fluorescence; filed as Kd, often an IC50 or EC50 that approximates it; ≥ and ≤ were set here for values at or beyond the usual limits of such assays; settings: source organism: Toxoplasma gondii GT1
[38] = biological target: HLA-A*02:06; assay: as above; settings: source organism: Toxoplasma gondii GT1
[39] = biological target: HLA-A*03:01; assay: IEDB peptide-MHC binding, purified MHC/direct/fluorescence; filed as Kd, often an IC50 or EC50 that approximates it; ≥ and ≤ were set here for values at or beyond the usual limits of such assays; settings: source organism: Influenza A virus (A/Duck/Shantou/2134/00(H9N2))
[40] = biological target: HLA-A*24:02; assay: as above; settings: source organism: Influenza A virus (A/Duck/Shantou/2134/00(H9N2))
[41] = biological target: HLA-A*26:01; assay: as above; settings: source organism: Influenza A virus (A/Taiwan/2/2006(H1N1))
[42] = biological target: HLA-B*08:01; assay: as above; settings: source organism: Influenza A virus (A/Duck/Shantou/2134/00(H9N2))
[43] = biological target: HLA-B*08:02; assay: as above; settings: source organism: Influenza A virus (A/Taiwan/2/2006(H1N1))
[44] = biological target: HLA-B*44:02; assay: as above; settings: source organism: Influenza A virus (A/Duck/Shantou/2134/00(H9N2))
[45] = source organism: Francisella tularensis subsp. tularensis FSC198
[46] = source organism: Buffalopox virus
[47] = source organism: dengue virus type 1
[48] = source organism: Yersinia pestis Nepal516
[49] = source organism: Mycobacterium tuberculosis
[50] = source organism: Influenza A virus (A/Duck/Shantou/2134/00(H9N2))

YLEGHGFRF
IC50 [1]: ≥ 76.3 µM
IC50 [2]: 0.403 µM
IC50 [3]: 0.18 µM
IC50 [4]: 17.6 µM

MGAGLVFPI
Kd [5, 45]: 0.0448 µM
Kd [6]: ≤ 0.0001 µM
Kd [7, 45]: ≥ 5 µM
Kd [8, 45]: ≥ 5 µM
Kd [9, 45]: ≥ 5 µM
Kd [10, 45]: ≥ 5 µM

IHSDQLSKF
Kd [11, 46]: ≥ 20 µM
Kd [12, 46]: ≥ 20 µM
Kd ([13]; source organism: Variola virus): ≥ 20 µM
Kd [14]: ≥ 20 µM
Kd [15, 46]: ≥ 20 µM
Kd [16, 46]: ≥ 20 µM
Kd [17, 46]: ≥ 20 µM
Kd [18]: ≥ 20 µM
Kd [19, 46]: ≥ 20 µM
Kd [20]: ≥ 20 µM
Kd [21]: ≥ 20 µM
Kd [22]: ≥ 20 µM
Kd [23, 46]: ≥ 20 µM
Kd [24]: 2.68 µM
Kd [25]: ≥ 20 µM
Kd [26]: ≥ 20 µM
Kd [27]: 4.57 µM
Kd [28]: 2.38 µM

HKEGAFFLY
IC50 [1]: ≥ 136 µM
IC50 [3]: ≥ 149 µM

ATYGWNLVK
Kd ([29]; source organism: Dengue virus 1 Singapore/S275/1990): ≤ 0.001 µM
Kd [30]: 0.00148 µM
Kd [5, 47]: 0.0774 µM
Kd [7, 47]: ≥ 5 µM
Kd [8, 47]: ≥ 5 µM
Kd [9, 47]: ≥ 5 µM
Kd [31]: 0.212 µM
Kd [32]: 0.755 µM

VEMQLAVVI
Kd [33]: ≥ 20 µM
Kd [7, 48]: ≥ 5 µM
Kd [34]: 0.0079 µM
Kd [8, 48]: ≥ 5 µM
Kd [9, 48]: ≥ 5 µM
Kd [10, 48]: ≥ 5 µM

ALRQARAAF
Kd [35, 49]: 0.0089 µM
Kd ([16]; source organism: Mycobacterium tuberculosis str. Haarlem): 0.012 µM
Kd [36]: ≥ 20 µM
Kd [5, 49]: 0.157 µM
Kd [7, 49]: ≥ 5 µM
Kd [8, 49]: ≥ 5 µM
Kd [10, 49]: ≥ 5 µM

VLGSWPVDL
Kd [37]: 0.209 µM
Kd [38]: 2.46 µM

ASRGLWDSF
Kd [11, 50]: ≥ 20 µM
Kd [12, 50]: ≥ 20 µM
Kd [39]: ≥ 20 µM
Kd [29, 50]: ≥ 20 µM
Kd [40]: ≥ 20 µM
Kd [41]: ≥ 20 µM
Kd [15, 50]: ≥ 20 µM
Kd [35, 50]: ≥ 20 µM
Kd [42]: ≥ 20 µM
Kd [43]: ≥ 20 µM
Kd ([16]; source organism: Influenza A virus (A/Puerto Rico/8/34/Mount Sinai(H1N1))): 0.891 µM
Kd [17, 50]: ≥ 20 µM
Kd [19, 50]: ≥ 20 µM
Kd [44]: ≥ 20 µM
Kd [23, 50]: ≥ 5 µM

HVFVCGNNM
Kd ([13]; source organism: Fowlpox virus): 0.076 µM
